Test results as given in US20180155451A1 (published 2018).

T1: FcγRIIb extracellular domain with C-terminal His tag (human, UniProt P31994 43-217)
T1 construct: extracellular domain; Soluble receptor expressed in FreeStyle293 cells and used as analyte in Biacore; also called FcgRIIb; 2b; not shown: His tag at the C terminus
T1 sequence (looked up): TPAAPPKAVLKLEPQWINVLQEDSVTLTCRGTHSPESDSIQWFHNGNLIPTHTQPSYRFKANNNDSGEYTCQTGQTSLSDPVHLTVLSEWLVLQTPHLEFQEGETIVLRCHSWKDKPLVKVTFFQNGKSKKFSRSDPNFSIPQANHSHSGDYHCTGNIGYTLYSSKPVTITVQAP

B1: GpH7-A5/GpH7-B3 variant Q295_14T/GpL16-k0 (antibody, human IgG1, kappa)
heavy 1: not shown
heavy 2: not shown
light: DIVMTQSPLSLPVTPGEPASISCQASESLVHSNRNTYLHWYLQKPGQSPQLLIYKVSNRFSGVPDRFSGSGSGTDFTLKISRVEAEDVGVYYCSQNTHVPPTFGQGTKVEIERTVAAPSVFIFPPSDEQLKSGTASVVCLLNNFYPREAKVQWKVDNALQSGNSQESVTEQDSKDSTYSLSSTLTLSKADYEKHKVYACEVTHQGLSSPVTKSFNRGEC
notes: mutation in one H chain only; also called He Ab Q295_14T; Q295T
B2: GpH7-A5/GpH7-B3 variant Q295_09D/GpL16-k0 (antibody, human IgG1, kappa)
heavy 1: not shown
heavy 2: not shown
light: B1 light
notes: mutation in one H chain only; also called He Ab Q295_09D; Q295D
B3: GpH7-A5/GpH7-B3 variant Q295_04F/GpL16-k0 (antibody, human IgG1, kappa)
heavy 1: not shown
heavy 2: not shown
light: B1 light
notes: mutation in one H chain only; also called He Ab Q295_04F; Q295F
B4: GpH7-A5/GpH7-B3 variant P271_14T/GpL16-k0 (antibody, human IgG1, kappa)
heavy 1: not shown
heavy 2: not shown
light: B1 light
notes: mutation in one H chain only; also called He Ab P271_14T; P271T
B5: GpH7-A5/GpH7-B3 variant P329_01G/GpL16-k0 (antibody, human IgG1, kappa)
heavy 1: not shown
heavy 2: not shown
light: B1 light
notes: mutation in one H chain only; also called He Ab P329_01G; P329G
B6: GpH7-A5/GpH7-B3 variant Q295_03V/GpL16-k0 (antibody, human IgG1, kappa)
heavy 1: not shown
heavy 2: not shown
light: B1 light
notes: mutation in one H chain only; also called He Ab Q295_03V; Q295V
B7: GpH7-A5/GpH7-B3 variant Q295_11K/GpL16-k0 (antibody, human IgG1, kappa)
heavy 1: not shown
heavy 2: not shown
light: B1 light
notes: mutation in one H chain only; also called He Ab Q295_11K; Q295K
B8: GpH7-A5/GpH7-B3 variant P329_02A/GpL16-k0 (antibody, human IgG1, kappa)
heavy 1: not shown
heavy 2: not shown
light: B1 light
notes: mutation in one H chain only; also called He Ab P329_02A; P329A
B9: GpH7-A5/GpH7-B3 variant P271_16H/GpL16-k0 (antibody, human IgG1, kappa)
heavy 1: not shown
heavy 2: not shown
light: B1 light
notes: mutation in one H chain only; also called He Ab P271_16H; P271H
B10: GpH7-A5/GpH7-B3 variant Q295_05P/GpL16-k0 (antibody, human IgG1, kappa)
heavy 1: not shown
heavy 2: not shown
light: B1 light
notes: mutation in one H chain only; also called He Ab Q295_05P; Q295P
B11: GpH7-A5/GpH7-B3 variant Q295_13S/GpL16-k0 (antibody, human IgG1, kappa)
heavy 1: not shown
heavy 2: not shown
light: B1 light
notes: mutation in one H chain only; also called He Ab Q295_13S; Q295S
B12: GpH7-A5/GpH7-B3 variant Q295_08L/GpL16-k0 (antibody, human IgG1, kappa)
heavy 1: not shown
heavy 2: not shown
light: B1 light
notes: mutation in one H chain only; also called He Ab Q295_08L; Q295L
B13: GpH7-A5/GpH7-B3 variant Q295_15Y/GpL16-k0 (antibody, human IgG1, kappa)
heavy 1: not shown
heavy 2: not shown
light: B1 light
notes: mutation in one H chain only; also called He Ab Q295_15Y; Q295Y
B14: GpH7-A5/GpH7-B3 variant Q295_07I/GpL16-k0 (antibody, human IgG1, kappa)
heavy 1: not shown
heavy 2: not shown
light: B1 light
notes: mutation in one H chain only; also called He Ab Q295_07I; Q295I
B15: GpH7-A5/GpH7-B3 variant P271_15Y/GpL16-k0 (antibody, human IgG1, kappa)
heavy 1: not shown
heavy 2: not shown
light: B1 light
notes: mutation in one H chain only; also called He Ab P271_15Y; P271Y
B16: heterodimerized antibody GpH7-A5/GpH7-B3 variant Y296_03V/GpL16-k0 (antibody, human IgG1, kappa)
heavy 1: not shown
heavy 2: not shown
light: B1 light
notes: Substitution in only one H chain (GpH7-B3 side); also called He Ab
B17: heterodimerized antibody GpH7-A5/GpH7-B3 variant Y296_11K/GpL16-k0 (antibody, human IgG1, kappa)
heavy 1: not shown
heavy 2: not shown
light: B1 light
notes: as for B16
B18: heterodimerized antibody GpH7-A5/GpH7-B3 variant Y296_13S/GpL16-k0 (antibody, human IgG1, kappa)
heavy 1: not shown
heavy 2: not shown
light: B1 light
notes: as for B16
B19: heterodimerized antibody GpH7-A5/GpH7-B3 variant Y296_19Q/GpL16-k0 (antibody, human IgG1, kappa)
heavy 1: not shown
heavy 2: not shown
light: B1 light
notes: as for B16
B20: heterodimerized antibody GpH7-A5/GpH7-B3 variant Y296_05P/GpL16-k0 (antibody, human IgG1, kappa)
heavy 1: not shown
heavy 2: not shown
light: B1 light
notes: as for B16

target: T2, FcγRIa extracellular domain with C-terminal His tag (human, UniProt P12314 16-292); assay: SPR Biacore, relative FcγRIa binding vs GpH7-A5/GpH7-B3/GpL16-k0
T2 construct: extracellular domain; also called FcgRI; CD64; not shown: His tag at the C terminus
T2 sequence (P12314 16-292): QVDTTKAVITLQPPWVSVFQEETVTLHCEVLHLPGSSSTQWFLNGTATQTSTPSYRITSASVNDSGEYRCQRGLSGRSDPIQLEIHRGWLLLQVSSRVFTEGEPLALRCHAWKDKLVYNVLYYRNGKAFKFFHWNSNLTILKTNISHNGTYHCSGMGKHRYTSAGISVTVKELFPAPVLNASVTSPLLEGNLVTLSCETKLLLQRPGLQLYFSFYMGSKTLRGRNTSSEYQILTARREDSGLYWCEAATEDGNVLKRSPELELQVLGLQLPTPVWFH

He/Con_1a | Binder
103 % of HeCon Ab (=100) | B1
100 % of HeCon Ab (=100) | B2
102 % of HeCon Ab (=100) | B3
102 % of HeCon Ab (=100) | B4
101 % of HeCon Ab (=100) | B5
104 % of HeCon Ab (=100) | B6
101 % of HeCon Ab (=100) | B7
102 % of HeCon Ab (=100) | B8
102 % of HeCon Ab (=100) | B9
103 % of HeCon Ab (=100) | B10
102 % of HeCon Ab (=100) | B11
105 % of HeCon Ab (=100) | B12
102 % of HeCon Ab (=100) | B13
103 % of HeCon Ab (=100) | B14
103 % of HeCon Ab (=100) | B15

target: T3, FcγRIa extracellular domain with C-terminal His tag (human, UniProt P12314 16-292); assay: SPR Biacore, relative binding amount
T3 construct: extracellular domain; Soluble receptor expressed in FreeStyle293 cells and used as analyte in Biacore; also called FcgRI; 1a; not shown: His tag at the C terminus
T3 sequence (P12314 16-292): as above

He/Con_1a | Binder
104 % of GpH7-A5/GpH7-B3/GpL16-k0 (=100) | B16
105 % of GpH7-A5/GpH7-B3/GpL16-k0 (=100) | B17
105 % of GpH7-A5/GpH7-B3/GpL16-k0 (=100) | B18
112 % of GpH7-A5/GpH7-B3/GpL16-k0 (=100) | B19
95.6 % of GpH7-A5/GpH7-B3/GpL16-k0 (=100) | B20

target: T1, FcγRIIb extracellular domain with …; assay: SPR Biacore, relative binding amount

He/Con_2b | Binder
79.3 % of GpH7-A5/GpH7-B3/GpL16-k0 (=100) | B16
72.8 % of GpH7-A5/GpH7-B3/GpL16-k0 (=100) | B17
86.3 % of GpH7-A5/GpH7-B3/GpL16-k0 (=100) | B18
89.3 % of GpH7-A5/GpH7-B3/GpL16-k0 (=100) | B19
36.6 % of GpH7-A5/GpH7-B3/GpL16-k0 (=100) | B20

target: T3, FcγRIa extracellular domain with …; assay: SPR Biacore; relative binding to FcγRIa divided by that to FcγRIIb

Ia/IIb He_1a/2b | Binder
1.31 ratio of He/Con_1a to He/Con_2b | B16
1.44 ratio of He/Con_1a to He/Con_2b | B17
1.22 ratio of He/Con_1a to He/Con_2b | B18
1.25 ratio of He/Con_1a to He/Con_2b | B19
2.61 ratio of He/Con_1a to He/Con_2b | B20
